The values that follow come from patent US20230220068A1 (CODIAK BIOSCIENCES, published 2023).

In the test the target is T1, PrX (human, UniProt Q9P2B2).
T1 construct: also called PTGFRN overexpressing exosomes
T1 sequence (scaffold on exosomes, looked up): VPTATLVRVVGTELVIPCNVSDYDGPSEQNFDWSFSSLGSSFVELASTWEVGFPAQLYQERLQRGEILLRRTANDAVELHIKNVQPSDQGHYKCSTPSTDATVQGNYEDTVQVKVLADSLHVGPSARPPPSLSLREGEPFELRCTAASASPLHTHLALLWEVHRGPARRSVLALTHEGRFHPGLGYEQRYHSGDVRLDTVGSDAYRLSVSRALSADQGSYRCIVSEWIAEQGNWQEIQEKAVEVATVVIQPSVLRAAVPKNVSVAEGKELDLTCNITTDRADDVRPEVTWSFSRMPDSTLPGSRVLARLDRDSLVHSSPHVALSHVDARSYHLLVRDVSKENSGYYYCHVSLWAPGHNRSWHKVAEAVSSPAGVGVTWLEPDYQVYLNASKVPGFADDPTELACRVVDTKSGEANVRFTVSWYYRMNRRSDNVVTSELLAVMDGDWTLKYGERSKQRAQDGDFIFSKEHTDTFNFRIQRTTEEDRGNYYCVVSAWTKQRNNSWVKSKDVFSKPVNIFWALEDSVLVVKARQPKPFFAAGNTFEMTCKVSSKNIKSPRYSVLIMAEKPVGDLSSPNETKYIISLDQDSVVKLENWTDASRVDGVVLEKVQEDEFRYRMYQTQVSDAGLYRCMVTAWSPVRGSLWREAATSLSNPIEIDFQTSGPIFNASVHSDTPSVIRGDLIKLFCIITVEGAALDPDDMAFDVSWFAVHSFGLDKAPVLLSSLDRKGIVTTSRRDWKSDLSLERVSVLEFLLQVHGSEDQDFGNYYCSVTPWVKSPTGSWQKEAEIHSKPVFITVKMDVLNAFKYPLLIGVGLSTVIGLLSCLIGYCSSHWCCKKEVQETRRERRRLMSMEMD
The experiment in a line: Octet, exosomes on mouse SIRPα. (BLI is a label-free optical method that tracks binding on a fibre tip over time.)

B1: mouse SIRPα (receptor, UniProt P97797 32-373, looked up)
chain: KELKVTQPEKSVSVAAGDSTVLNCTLTSLLPVGPIRWYRGVGPSRLLIYSFAGEYVPRIRNVSDTTKRNNMDFSIRISNVTPADAGIYYCVKFQKGSSEPDTEIQSGGGTEVYVLAKPSPPEVSGPADRGIPDQKVNFTCKSHGFSPRNITLKWFKDGQELHPLETTVNPSGKNVSYNISSTVRVVLNSMDVNSKVICEVAHITLDRSPLRGIANLSNFIRVSPTVKVTQQSPTSMNQVNLTCRAERFYPEDLQLIWLENGNVSRNDTPKNLTKNTDGTYNYTSLFLVNSSAHREDVVFTCQVKHDQQPAITRNHTVLGFAHSSDQGSMQTFPDNNATHNWN
For the molecule B1, the binding result is reported as “no binding”.
